Assay results from US8703143.

Experiments:
Assay in all cases: ELISA on coated antigen, background subtracted
[1] = biological target: recombinant FN fragment 7B89 (human) (UniProt P02751)
[2] = biological target: fibronectin purified from the conditioned medium of the SV40-transformed cell line WI38VA13 (human) (UniProt P02751)
[3] = biological target: recombinant FN fragment 789 (human) (UniProt P02751)
[4] = biological target: large isoform of tenascin-C (UniProt P24821)
[5] = biological target: recombinant FN domain 6 (human) (UniProt P02751)
Sequence of recombinant FN domain 6 (human) (P02751 other isoform, or with tags, fused parts or gaps limits assumed): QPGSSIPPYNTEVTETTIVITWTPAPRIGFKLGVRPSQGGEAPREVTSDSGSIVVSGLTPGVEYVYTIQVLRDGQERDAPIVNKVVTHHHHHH

[6] = biological target: human plasma fibronectin (human) (UniProt P02751)
[7] = biological target: native FN 120 kD (B+) thermolysin fragment (human) (UniProt P02751)
[8] = biological target: native FN 110 kD (B-) thermolysin fragment (human) (UniProt P02751)
Sequence of native FN 110 kD (B-) thermolysin fragment (human) (P02751 other isoform, or with tags, fused parts or gaps limits assumed): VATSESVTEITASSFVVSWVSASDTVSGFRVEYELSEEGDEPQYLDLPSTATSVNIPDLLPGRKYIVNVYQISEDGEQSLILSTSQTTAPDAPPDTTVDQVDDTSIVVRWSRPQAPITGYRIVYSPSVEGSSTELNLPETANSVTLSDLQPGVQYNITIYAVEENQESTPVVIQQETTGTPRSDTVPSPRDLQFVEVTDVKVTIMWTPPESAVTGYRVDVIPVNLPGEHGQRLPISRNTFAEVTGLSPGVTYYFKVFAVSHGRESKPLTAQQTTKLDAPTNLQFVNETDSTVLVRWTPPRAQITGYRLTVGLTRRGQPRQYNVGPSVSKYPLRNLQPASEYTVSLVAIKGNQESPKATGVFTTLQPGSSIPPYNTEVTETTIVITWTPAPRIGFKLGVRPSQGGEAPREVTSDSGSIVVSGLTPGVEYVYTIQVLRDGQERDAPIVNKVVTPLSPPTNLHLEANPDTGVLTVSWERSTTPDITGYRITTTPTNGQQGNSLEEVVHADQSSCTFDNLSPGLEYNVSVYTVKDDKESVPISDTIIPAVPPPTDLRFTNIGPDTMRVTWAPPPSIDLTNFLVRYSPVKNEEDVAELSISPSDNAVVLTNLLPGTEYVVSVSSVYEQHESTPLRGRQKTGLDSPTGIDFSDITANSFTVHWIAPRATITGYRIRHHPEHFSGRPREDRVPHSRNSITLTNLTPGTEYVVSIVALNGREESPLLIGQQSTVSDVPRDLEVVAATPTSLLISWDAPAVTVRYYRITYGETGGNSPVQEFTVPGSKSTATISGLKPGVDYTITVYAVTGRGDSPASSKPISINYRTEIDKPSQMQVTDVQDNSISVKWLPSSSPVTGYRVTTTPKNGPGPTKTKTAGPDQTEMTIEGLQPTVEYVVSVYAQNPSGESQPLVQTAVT

[9] = biological target: recombinant ED-B domain of human fibronectin with a carboxy terminal hexahistidine tag (human) (UniProt P02751)
Sequence of recombinant ED-B domain of human fibronectin with a carboxy terminal hexahistidine tag (human) (P02751 other isoform, or with tags, fused parts or gaps limits assumed): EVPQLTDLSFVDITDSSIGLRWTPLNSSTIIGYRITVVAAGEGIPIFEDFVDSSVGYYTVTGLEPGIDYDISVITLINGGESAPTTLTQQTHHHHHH

Sequence of recombinant FN fragment 7B89 (human) (P02751 other isoform, or with tags, fused parts or gaps limits assumed): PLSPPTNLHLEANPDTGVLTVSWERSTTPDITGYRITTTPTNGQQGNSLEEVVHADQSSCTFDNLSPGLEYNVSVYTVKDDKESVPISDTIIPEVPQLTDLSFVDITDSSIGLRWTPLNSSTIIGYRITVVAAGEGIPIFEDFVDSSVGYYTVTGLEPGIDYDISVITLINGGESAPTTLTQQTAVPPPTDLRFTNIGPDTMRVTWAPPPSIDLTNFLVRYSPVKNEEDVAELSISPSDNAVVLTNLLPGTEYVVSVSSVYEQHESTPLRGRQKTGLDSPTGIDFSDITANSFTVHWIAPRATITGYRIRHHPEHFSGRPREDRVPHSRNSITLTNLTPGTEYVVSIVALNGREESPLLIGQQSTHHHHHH
Sequence of fibronectin purified from the conditioned medium of the SV40-transformed cell line WI38VA13 (human) (P02751 32-2477): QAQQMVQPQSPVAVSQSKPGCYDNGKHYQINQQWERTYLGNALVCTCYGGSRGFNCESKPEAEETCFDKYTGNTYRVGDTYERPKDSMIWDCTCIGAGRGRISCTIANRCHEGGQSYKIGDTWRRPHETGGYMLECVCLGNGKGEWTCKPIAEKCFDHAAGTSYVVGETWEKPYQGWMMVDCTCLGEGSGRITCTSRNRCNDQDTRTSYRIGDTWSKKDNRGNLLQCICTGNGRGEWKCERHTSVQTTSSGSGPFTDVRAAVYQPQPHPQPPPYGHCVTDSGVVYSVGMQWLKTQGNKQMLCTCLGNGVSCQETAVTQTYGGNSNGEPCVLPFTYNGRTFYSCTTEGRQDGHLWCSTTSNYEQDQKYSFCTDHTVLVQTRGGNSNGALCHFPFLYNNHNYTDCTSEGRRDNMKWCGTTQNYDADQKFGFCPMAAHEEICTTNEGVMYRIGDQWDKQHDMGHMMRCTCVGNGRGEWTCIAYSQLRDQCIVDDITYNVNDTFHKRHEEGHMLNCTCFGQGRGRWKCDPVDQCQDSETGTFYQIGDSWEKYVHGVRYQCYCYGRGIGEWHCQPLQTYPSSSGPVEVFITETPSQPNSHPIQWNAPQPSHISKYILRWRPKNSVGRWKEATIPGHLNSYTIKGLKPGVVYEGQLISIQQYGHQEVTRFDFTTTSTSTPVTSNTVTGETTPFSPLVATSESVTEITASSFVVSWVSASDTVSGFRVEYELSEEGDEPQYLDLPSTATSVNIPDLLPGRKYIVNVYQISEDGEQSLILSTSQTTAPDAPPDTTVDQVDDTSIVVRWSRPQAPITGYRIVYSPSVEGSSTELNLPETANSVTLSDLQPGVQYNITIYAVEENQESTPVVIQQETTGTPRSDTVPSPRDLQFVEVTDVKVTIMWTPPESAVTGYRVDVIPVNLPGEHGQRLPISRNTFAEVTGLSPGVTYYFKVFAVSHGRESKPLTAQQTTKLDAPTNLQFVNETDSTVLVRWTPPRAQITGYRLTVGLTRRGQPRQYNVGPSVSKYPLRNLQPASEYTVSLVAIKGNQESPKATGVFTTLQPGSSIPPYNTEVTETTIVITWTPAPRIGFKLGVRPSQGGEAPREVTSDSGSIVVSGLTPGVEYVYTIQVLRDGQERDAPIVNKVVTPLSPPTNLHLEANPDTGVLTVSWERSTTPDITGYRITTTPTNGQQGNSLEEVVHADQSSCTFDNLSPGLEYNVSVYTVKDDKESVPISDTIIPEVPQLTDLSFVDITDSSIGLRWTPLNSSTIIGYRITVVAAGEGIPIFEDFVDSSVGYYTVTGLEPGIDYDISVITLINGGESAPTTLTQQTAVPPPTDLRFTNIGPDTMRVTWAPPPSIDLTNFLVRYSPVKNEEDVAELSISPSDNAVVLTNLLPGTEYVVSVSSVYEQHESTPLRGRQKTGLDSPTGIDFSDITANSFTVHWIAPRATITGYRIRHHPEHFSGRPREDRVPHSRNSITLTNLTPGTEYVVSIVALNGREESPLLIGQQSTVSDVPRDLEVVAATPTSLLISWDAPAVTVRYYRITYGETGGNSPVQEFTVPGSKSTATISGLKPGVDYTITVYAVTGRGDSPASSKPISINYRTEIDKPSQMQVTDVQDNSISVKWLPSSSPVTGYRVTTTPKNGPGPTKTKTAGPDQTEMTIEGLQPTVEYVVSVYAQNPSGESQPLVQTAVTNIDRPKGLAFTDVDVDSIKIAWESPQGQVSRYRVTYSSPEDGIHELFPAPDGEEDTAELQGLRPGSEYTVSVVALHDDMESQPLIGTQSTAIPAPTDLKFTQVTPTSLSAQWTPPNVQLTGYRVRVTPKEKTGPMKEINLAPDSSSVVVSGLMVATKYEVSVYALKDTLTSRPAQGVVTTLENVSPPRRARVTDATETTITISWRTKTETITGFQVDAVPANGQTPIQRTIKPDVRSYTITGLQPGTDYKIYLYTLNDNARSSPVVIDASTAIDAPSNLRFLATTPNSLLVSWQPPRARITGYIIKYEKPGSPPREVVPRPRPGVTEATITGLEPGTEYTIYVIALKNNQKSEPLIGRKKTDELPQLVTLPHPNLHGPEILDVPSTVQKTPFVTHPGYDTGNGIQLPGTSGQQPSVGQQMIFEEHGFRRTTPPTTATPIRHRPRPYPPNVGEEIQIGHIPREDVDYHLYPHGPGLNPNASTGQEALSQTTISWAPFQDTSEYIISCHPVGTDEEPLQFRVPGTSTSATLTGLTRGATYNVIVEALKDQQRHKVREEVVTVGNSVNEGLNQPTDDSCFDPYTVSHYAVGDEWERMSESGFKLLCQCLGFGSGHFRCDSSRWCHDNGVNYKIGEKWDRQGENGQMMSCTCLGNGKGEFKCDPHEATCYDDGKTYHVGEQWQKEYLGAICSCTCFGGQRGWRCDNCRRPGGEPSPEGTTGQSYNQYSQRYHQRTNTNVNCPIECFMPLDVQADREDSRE
Sequence of recombinant FN fragment 789 (human) (P02751 other isoform, or with tags, fused parts or gaps limits assumed): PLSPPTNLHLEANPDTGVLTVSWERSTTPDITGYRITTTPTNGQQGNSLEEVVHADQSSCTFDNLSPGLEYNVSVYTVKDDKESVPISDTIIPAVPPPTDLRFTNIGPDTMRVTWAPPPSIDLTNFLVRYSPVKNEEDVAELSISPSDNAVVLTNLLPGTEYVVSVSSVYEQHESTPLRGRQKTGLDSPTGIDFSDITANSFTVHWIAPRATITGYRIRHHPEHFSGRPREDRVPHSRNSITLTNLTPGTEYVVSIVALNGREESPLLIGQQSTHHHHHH

| Substance | OD at 405 nm [1] [OD 405 nm] | OD at 405 nm [2] [OD 405 nm] | OD at 405 nm [3] [OD 405 nm] | OD at 405 nm [4] [OD 405 nm] | OD at 405 nm [5] [OD 405 nm] | OD at 405 nm [6] [OD 405 nm] | OD at 405 nm [7] [OD 405 nm] | OD at 405 nm [8] [OD 405 nm] | OD at 405 nm [9] [OD 405 nm] |
| --- | --- | --- | --- | --- | --- | --- | --- | --- | --- |
| mAb BC-1 (antibody) | 1.02 | 1.2 | 0.05 | 0.06 | 0.08 | 0.09 | 1.2 | 0.05 | 0.15 |
| mAb IST-6 (antibody) | 0.01 | 1.12 | 1.25 | 0.02 | 0.03 | 1.73 | 0.02 | 1.2 | 0.04 |
